Here are results for three molecules from patent publication WO2009080764A2 (dated 2009).

For test [1], the target named is T1, shFcRn-GST (GST-fused soluble human FcRn, heterodimeric) (human, UniProt P55899 24-290; P61769 21-119).
T1 construct: Eukaryotically expressed; immobilized by amine coupling on CM5 chips or used in ELISA; also called GST-fused shFcRn; not shown: GST fusion partner
Put plainly: SPR Biacore 3000, immobilized shFcRn-GST, pH 7.4, equilibrium responses in a steady-state affinity model. On the technique in general: Surface plasmon resonance follows binding to a sensor surface in real time, without labels.

Test [2] concerns the target T1, shFcRn-GST (GST-fused soluble human …). The test is described as follows: SPR Biacore 3000, Nb 500-15 nM over immobilized shFcRn-GST, pH 6.0, 1:1 Langmuir model.
Test [3] has the same target. Put plainly: SPR Biacore 3000, immobilized shFcRn-GST, pH 6.0, equilibrium responses in a steady-state affinity model.
For test [4] the target is unchanged. Put plainly: SPR Biacore 3000, Nb 500-15 nM over immobilized shFcRn-GST, pH 7.4, 1:1 Langmuir model.
The target in test [5] is T2, human beta2-microglobulin (human, UniProt P61769 21-119).
T2 construct: also called b2-microglobulin; soluble human b2-microglobulin
Put plainly: ELISA on coated b2-microglobulin from human urine, pH 5.1. In general terms: An ELISA detects its analyte on a solid surface through an enzyme-linked reagent.

Test [6] has as its target T3, human serum albumin (HSA) (human, UniProt P02768 25-609).
T3 construct: also called monomeric HSA
The test is described as follows: SPR Biacore T100, periplasmic extract over immobilized human serum albumin, pH 7 and pH 5.

In test [7] the target is shFcRn (intact soluble human FcRn, heavy chain and beta2-microglobulin) (human) (UniProt P55899). Put plainly: ELISA pH 5.1, purified nanobody 0-50 nM on coated shFcRn, anti-myc detection.
shFcRn (intact soluble human FcRn, heavy chain and beta2-microglobulin) (human), sequence (P55899 other isoform, or with tags, fused parts or gaps, chain 1 of 2): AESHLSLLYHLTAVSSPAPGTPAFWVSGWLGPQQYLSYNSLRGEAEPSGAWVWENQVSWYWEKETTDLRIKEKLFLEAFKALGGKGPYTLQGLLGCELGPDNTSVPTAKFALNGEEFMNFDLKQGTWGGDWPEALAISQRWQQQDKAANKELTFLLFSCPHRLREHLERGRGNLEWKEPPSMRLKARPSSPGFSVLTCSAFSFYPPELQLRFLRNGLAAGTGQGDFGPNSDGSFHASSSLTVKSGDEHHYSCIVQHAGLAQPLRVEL
shFcRn (intact soluble human FcRn, heavy chain and beta2-microglobulin) (human), sequence (P61769 21-119, chain 2 of 2, further chain): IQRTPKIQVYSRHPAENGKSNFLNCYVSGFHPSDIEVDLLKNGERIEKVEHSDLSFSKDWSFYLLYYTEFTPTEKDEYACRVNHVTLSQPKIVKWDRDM

T1 sequence (P55899 24-290, chain 1 of 2): as the sequence (P55899 other isoform, or with tags, fused parts or gaps, chain 1 of 2) above, with S48C, S251C counted along it
T1 sequence (P61769 21-119, chain 2 of 2): as the sequence (P61769 21-119, chain 2 of 2, further chain) above
T2 sequence (P61769 21-119 limits assumed): as the sequence (P61769 21-119, chain 2 of 2, further chain) above

B1: Nb 218-H4 (VHH)
VHH: EVQLVESGGALVQAGGSLRLSCVASGRTFNSIGMGWFRQAPGKERDFIGGITWDGRDTYYTDSVKGRFTISRDNAKNTVYLQMNSLKPWDTAVYYCAANRDPWIATSYQDYAYWGQGTQVTVSS
notes: Anti-FcRn Nanobody, family V; detected through a myc tag; also called monovalent nanobody
By Kd is commonly meant the free concentration of one partner at which half of the binding sites on the other are occupied at equilibrium, for simple one-to-one binding. Read a low Kd as higher affinity. As to B1, the Kd in test [1] was 55.6 nM; in test [2] it was about 21.2 nM; in test [3], 22 nM; in test [4], about 52.5 nM. Also, the binding result in test [5] was “no binding (tested: 0-50 nM)”.

B2: 4A9 (VHH)
VHH: EVQLVESGGGLVQAGGSLRLSCEASGFTLDYSGVGWFRQAPGKERELVSCISRGGDRAGYANSVKGRFTMSRDNAKNILYLQMNSLKPEDTAVYYCAATHSGSGCYDGAIDYWGKGTLVTVSS
With B2, the “fold difference in off rate, pH 5 against pH 7” value in test [6] was 0.54 fold.

B3: 218-H4_20GS_218-H4 (bivalent Nb 218-H4) (VHH)
chain: EVQLVESGGALVQAGGSLRLSCVASGRTFNSIGMGWFRQAPGKERDFIGGITWDGRDTYYTDSVKGRFTISRDNAKNTVYLQMNSLKPWDTAVYYCAANRDPWIATSYQDYAYWGQGTQVTVSSGGGGSGGGGSGGGGSGGGGSEVQLVESGGALVQAGGSLRLSCVASGRTFNSIGMGWFRQAPGKERDFIGGITWDGRDTYYTDSVKGRFTISRDNAKNTVYLQMNSLKPWDTAVYYCAANRDPWIATSYQDYAYWGQGTQVTVSS
Turning to B3, the binding result in test [5] is on record as “no binding (tested: 0-50 nM)”. This molecule also returned a fold improvement in binding against the monovalent nanobody in test [7] of 10 fold.
